In paper PMC4543619 (British Journal of Pharmacology, 2015) one finds Kd data, which are given here for 1 molecule.

What is called Kd is the equilibrium constant for the complex coming apart. High values mean lower affinity, low ones higher affinity.

Read-outs that look alike come from different tables or passages of the source.

Experiment [1] addresses T1, native/full length GTP cyclohydrolase 1 (F‐GCH1), His6-tagged (human, UniProt P30793 1-250).
T1 sequence (looked up): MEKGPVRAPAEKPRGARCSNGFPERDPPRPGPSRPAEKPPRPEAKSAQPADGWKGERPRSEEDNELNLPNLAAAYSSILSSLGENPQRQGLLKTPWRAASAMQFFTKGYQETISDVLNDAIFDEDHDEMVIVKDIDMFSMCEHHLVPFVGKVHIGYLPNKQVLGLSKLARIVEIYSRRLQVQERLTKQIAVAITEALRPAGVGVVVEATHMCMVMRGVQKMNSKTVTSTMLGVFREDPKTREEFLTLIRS
Briefly: SPR.

For experiment [2], the target named is T1, native/full length GTP cyclohydrolase 1 …. Description: SPR. The source holds these as a separate data set.

B1: GCH1 feedback regulatory protein (GFRP), His6 tag cleaved (natural protein)
chain: not shown
Turning to B1, the Kd in experiment [1] amounted to 1 nM; in experiment [2], 8 nM.
